Experimental findings from patent US20190233522A1, “NEW DOSAGE REGIMENS FOR ANTIBODY DRUG CONJUGATES BASED ON ANTI-AXL ANTIBODIES” (GENMAB A/S, priority 2016, published 2019) are described below.

One series has as its system LCLC-103H cells. Briefly: Cytotoxicity assay (CellTiter-Glo) in LCLC-103H cells. It counts as cell-based, human. Conditions: 5 days incubation. Here is the method: (§1) LCLC-103H cells (human large cell lung cancer) and A431 cells (DMSZ, Braunschweig, Germany) were cultured in RPMI 1640 with L-Glutamine (Cambrex; cat.no. BE12-115F) supplemented with 10% (vol/vol) heat inactivated Cosmic Calf Serum (Perbio; cat.no. SH30087.03), 2 mM L-glutamine (Cambrex; cat.no. US17-905C), 50 IU/mL penicillin, and 50 µg/mL streptomycin (Cambrex; cat.no. DE17-603E). MDA-MB231 cells were cultured in DMEM with high glucose and HEPES (Lonza #BE12-709F), Donor Bovine Serum with Iron (Life Technologies #10371-029), 2 mM L-glutamine (Lonza #BE17 -605E), 1 mM Sodium Pyruvate (Lonza #BE13-115E), and MEM Non-Essential Amino Acids Solution (Life Technologies #11140). The cell lines were maintained at 37° C. in a 5% (vol/vol) CO2 humidified incubator. LCLC-103H, A431 and MDA-MB231 cells were cultured to near confluency, after which cells were trypsinized, resuspended in culture medium and passed through a cell strainer (BD Falcon, cat.no. 352340) to obtain a single cell suspension. […]
(§2) Subsequently, 180 μL per well was transferred to white 96-well Optiplate™ plates (PerkinElmer, Waltham, Mass.; cat.no. 6005299), which were incubated for 30 min at room temperature. Finally, luminescence was measured on an EnVision multiplate reader (Envision, Perkin Elmer).

The test system of the next series is A431 tumors. As to the kind of experiment: A431 xenograft model (high Gas6). It counts as in vivo. The note with it: 3 mg/kg i.p., SCID mice. Here is the method: (§3) Tumor induction was performed by subcutaneous injection of 5×10^6 A431 or LCLC-103H tumor cells (both obtained from Leibniz-Institut—Deutsche Sammlung von Mikroorganismen and Zellkulturen GmbH (DSMZ)) in 200 μL PBS in the right flank of female SCID mice. Treatment was started 14-21 days after tumor cell inoculation, when the average tumor size was >100-200 mm^3 and distinct tumor growth was observed. Mice received a single injection or a total of 4 biweekly intraperitoneal injections with IgG1-AXL-vcMMAE ADCs or control antibody (unconjugated IgG1-b12), as indicated. Tumor volume was determined at least two times per week. Tumor volumes (mm^3) were calculated from caliper (PLEXX) measurements as: 0.52×(length)×(width)^2.

The next series concerns LCLC-103H tumors. As to the kind of experiment: LCLC-103H xenograft model (low Gas6, Example 5). Type of series: in vivo. The note with it: 3 mg/kg i.p., SCID mice. Here is the method: as §3
Series [1] is described as follows: Pre-clinical PK studies in cynomolgus monkey. Type of series: in vivo. The text has this: Data from 5 in-vivo pre-clinical studies, shown in the Table below, were provided, containing measurements of the plasma ADC level, plasma IgG level, and plasma MMAE level (only measured in study 5).
All studies appeared to show a significant drop in plasma concentrations of ADC/IgG after the 2nd dose when compared to the first dose, which corresponded with an ADA response. As this is a fully human antibody, ADA response are only very rarely expected to occur in humans. Therefore, only data after the first dose were included in the data preparation and subsequently modelled.

The test system of series [2] is LCLC-103H xenograft tumors. As to the kind of experiment: Therapeutic treatment of SC LCLC-103H tumor xenografts (Example 3). It counts as in vivo, SCID mice. Here is the method:
The in vivo efficacy of MMAE-conjugated anti-AXL antibodies was determined in established subcutaneous (SC) LCLC-103H xenograft tumors in SCID mice. 5×10^6 LCLC-103H (large cell lung carcinoma) tumor cells (obtained from Leibniz-Institut DSMZ-Deutsche Sammlung von Mikroorganismen and Zellkulturen GmbH (DSMZ)) in 200 μL PBS were injected subcutaneously in the right flank of female SCID mice. Starting 14-21 days after tumor cell inoculation, when the average tumor size was >100-200 mm^3 and distinct tumor growth was observed, a single injection with 1 mg/kg (20 μg/mouse) IgG1-AXL-vcMMAE antibodies or control (unconjugated IgG1-b12) was given intraperitoneally (100 μL/mouse). Tumor volume was determined at least two times per week. Tumor volumes (mm^3) were calculated from caliper (PLEXX) measurements as: 0.52×(length)×(width)^2.

A further series deals with AXL (Homo sapiens, UniProt P30530). As to the kind of experiment: Competition with Gas6 for binding to AXL.
The next series relates to A431 cells. As to the kind of experiment: Cytotoxicity assay (CellTiter-Glo) in A431 cells. It counts as cell-based. The note with it: A431 (n = 3), 5 days incubation. Here is the method:
as §1, §2

A further series relates to MDA-MB231 cells. As to the kind of experiment: Cytotoxicity assay (CellTiter-Glo) in MDA-MB231 cells. Type of series: cell-based. The note with it: MDA-MB231 (n = 2), 5 days incubation. Here is the method:
as §1, §2

The test system of the next series is PAXF1657 tumors. As to the kind of experiment: PAXF1657 pancreas cancer PDX model. It counts as in vivo, NMRI nu/nu mice. Here is the method: Human pancreas tumor tissue was subcutaneously implanted in the left flank of 5-7 weeks old female NMRI nu/nu mice. […] At day of randomization (day 0), the 3 ADCs were dosed intravenously (i.v.) at either 4 mg/kg or 2 mg/kg, and the control group received a single dose of IgG1-b12 (4 mg/kg). Tumor volumes (mm^3) were monitored twice weekly and were calculated from caliper (PLEXX) measurements as: 0.52×(length)×(width)^2.

B1: IgG1-AXL-148-vcMMAE: anti-AXL antibody 148 (VH SEQ ID No 5, VL SEQ ID No 6), Ig2 binder, conjugated to vcMMAE (conjugate)
VH: EVQLLESGGGLVQPGGSLRLSCAASGFTFSSYAMTWVRQAPGKGLEWVSAISISGGSTFYADSVKGRFTISRDNSKNTLYLQMNSLRAEDTAVYYCRGYSGYVYDAFDFWGQGTMVTVSS
VL: DIQMTQSPSSLSASVGDRVTITCRASQGISNWLAWYQQKPEKAPKSLIYAASSLQSGVPSRFSGSGSGTDFTLTISSLQPEDFATYYCQQYNSYPLTFGGGTKVEIK
modifications: vc-MMAE conjugate; homo sapiens
On to B1, for which the EC50 in the series on LCLC-103H cells turned out to be 0.012 µg/mL. The “anti-tumor activity on A431 tumors” value in the series with A431 tumors was “induced growth inhibition”. For the same molecule, the “anti-tumor activity in the LCLC-103H xenograft model” value in the series with LCLC-103H tumors is “induced tumor regression”. In addition, the “pharmacokinetic properties, unconjugated antibody (study 3) versus ADC (study 2)” value in series [1] is given as “similar”. In [2] (1 mg/kg single i.p.), the complete tumor reduction result was “in some mice within these groups to complete tumor reduction”. The “tumor volume versus control IgG1-b12” value in series [2] (day 30, One Way ANOVA (Dunnett's), 1 mg/kg single i.p.) is reported as “highly significant difference”. The “anti-tumor activity in established SC LCLC-103H tumors” value in series [2] (single i.p. injection 1 mg/kg, SCID mice) was “induced tumor regression”. Also, in the series with AXL, the “competition with Gas6 for binding to AXL” value was “lack of competition”. The “EC50 Mean” value is 0.070 µg/mL with A431 cells and 0.012 µg/mL in the series with MDA-MB231 cells. In the series on PAXF1657 tumors (2 mg/kg i.v., day 0), the “growth of PAXF1657 tumors compared to the control group” value was “significantly reduced the growth”. Also, the “anti-tumor activity on PAXF1657 tumors” value in the series with PAXF1657 tumors (4 mg/kg i.v., day 0) is recorded as “induced tumor regression”. In addition, the “average tumor size versus isotype control IgG1-b12” value in the series on PAXF1657 tumors (day 14, 2 mg/kg or 4 mg/kg, p<0.001 Tukey's multiple comparison test) is “significantly smaller”. In the series with PAXF1657 tumors (dose not given), the “anti-tumor activity in the PAXF1657 model” value is reported as “induced dose-dependent antitumor activity”.
